Results reported in patent US20050053994.

B1: human DNase I (protein)
chain: LKIAAFNIQTFGETKMSNATLVSYIVQILSRYDIALVQEVRDSHLTAVGKLLDNLNQDAPDTYHYVVSEPLGRNSYKERYLFVYRPDQVSAVDSYYYDDGCEPCGNDTFNREPAIVRFFSRFTEVREFAIVPLHAAPGDAVAEIDALYDVYLDVQEKWGLEDVMLMGDFNAGCSYVRPSQWSSIRLWTSPTFQWLIPDSADTTATPTHCAYDRIVVAGMLLRGAVVPDSALPFNFQAAYGLSDQLAQAISDHYPVEVMLK
B2: human LS-DNase (protein)
chain: MRICSFNVRSFGESKQEDKNAMDVIVKVIKRCDIILVMEIKDSNNRICPILMEKLNRNSRRGITYNYVISSRLGRNTYKEQYAFLYKEKLVSVKRSYHYHDYQDGDADVFSREPFVVWFQSPHTAVKDFVIIPLHTTPETSVKEIDELVEVYTDVKHRWKAENFIFMGDFNAGCSYVPKKAWKNIRLRTDPRFVWLIGDQEDTTVKKSTNCAYDRIVLRGQEIVSSVVPKSNSVFDFQKAYKLTEEEALDVSDHFPVEFKLQSSRAFTNSKKSVTLRKKTKSKRS

Target: actin

Protein	DNA-hydrolytic activity in plasmid nicking assay (supercoiled pBR322, agarose gel)
B1	the DNA-hydrolytic activity of human DNase I was inhibited by added actin in a concentration-dependent manner
B2	the DNA-hydrolytic activity of LS-DNase was not inhibited by concentrations of actin that fully inhibited human DNase I
